Results from patent US20190352376A1 (NATIONAL RESEARCH COUNCIL OF CANADA, published 2019).
Substitutions are numbered along the chain they refer to.

B1: F211-11H12 (antibody, V domains shown)
VH: DVQLQESGPGLVKPSQSLSLTCSVTGYSITSDYYWNWIRQFPGNKLEWMAYIGYDGTKNYNPSLKNRISITRDTSKNQFFLKLNSVTTDDTATYYCTRDRANWDDYFDYWGQGTTLTVSS
VL: DIVMSQSPSSLAVSVGEKVTMSCKSSQSLLNSRNQKNHLAWYQQKPGQSPKLLIYWASTRESGVPDRFTGDGSGTDFTLTISSVKAEDLAVYYCQQYYTYRTFGGGTKLEIK
B2: F211-9D1 (antibody, V domains shown)
VH: B1 VH with T57S
VL: B1 VL with T69S
B3: F211-10A9 (antibody, V domains shown)
VH: QIQLQQSGPELVKPGAPVKISCKASGYTFTDYYIHWVNQRPGQGLEWIGYIYPGNGHTVYNQKFKVRATLTADNPSSTAYLQLNSLTSEDSGVYFCAYDLFNYWGQGTLVTVSA
VL: DIVMTQSPSSLAMSVGQKVTMSCKSSQSLLNSDTQKNFLAWYQQKPGQSPKILVYFASTKESGVPDRFIGSGSGTDFTLTITSVQAEDLADYFCQQYYSIPLTFGAGTKLELK

Key:
[1] = target: hemagglutinin of H4N6 A/Duck/Czechoslovakia/56 (influenza virus H4N6 …, UniProt P19696 17-564); experiment: Western blot; virus, eggs
[2] = target: hemagglutinin of H7N3/A/Turkey/Oregon/71 (influenza virus H7N3 A/Turkey/Oregon/71, UniProt P03458 19-560); experiment: Western blot; virus, eggs
[3] = target: T1, hemagglutinin of H3N2 A/Brisbane/10/2007 (influenza virus H3N2 A/Brisbane/10/2007); experiment: dot blot, 4M urea; rHA (BEI Res.), dot 6
T1 construct: rHA (BEI Resources)

[4] = target: T2, hemagglutinin of H1N1 A/Puerto Rico/8/1934 (influenza virus H1N1 A/Puerto …, UniProt P03452 18-528); experiment: dot blot, 4M urea; rHA (Prot. Sc.), dot 1
[5] = target: hemagglutinin of H3N2 A/Wisconsin/67/2005 (influenza virus H3N2 A/Wisconsin/67/2005); experiment: dot blot, 4M urea; rHA (Prot. Sc.), dot 4
[6] = target: hemagglutinin of B/Brisbane/60/2008 (influenza virus B/Brisbane/60/2008); experiment: dot blot, 4M urea; rHA (Prot. Sc.), dot 11
[7] = target: T3, hemagglutinin of H1N1 A/California/06/2008 (influenza virus H1N1 …); experiment: dot blot, 4M urea; rHA (Imm. Techn.), dot 2
[8] = target: T4, hemagglutinin of H3N2 A/Hong Kong/8/1968 (influenza virus H3N2 A/Hong Kong/8/1968); experiment: dot blot, 4M urea; rHA (Imm. Techn.), dot 5
[9] = target: T2, hemagglutinin of H1N1 A/Puerto …; experiment: dot blot, 4M urea; virus (HEK293/NRC), dot 17
[10] = target: T4, hemagglutinin of H3N2 A/Hong Kong/8/1968; experiment: dot blot, 4M urea; virus (HEK293/NRC), dot 19
[11] = target: T3, hemagglutinin of H1N1 …; experiment: dot blot, 4M urea; inactivated virus (egg/NIBSC), dot 12
[12] = target: hemagglutinin of H3N2 A/Texas/50/2012 (influenza virus H3N2 A/Texas/50/2012); experiment: dot blot, 4M urea; inactivated virus (egg/NIBSC), dot 13
[13] = target: hemagglutinin of B/Massachusetts/2/2012 (influenza virus B/Massachusetts/2/2012); experiment: dot blot, 4M urea; inactivated virus (egg/NIBSC), dot 14
[14] = target: hemagglutinin of H2N2 A/Singapore/1/57 (influenza virus H2N2 A/Singapore/1/57, UniProt Q67333 16-562); experiment: Western blot; virus, eggs
[15] = target: hemagglutinin of H8N4 A/Turkey/Ontario/6118/68 (influenza virus H8N4 …, UniProt P03456 16-565); experiment: Western blot; virus, eggs
[16] = target: hemagglutinin of H9N2 A/Turkey/Wisconsin/1/66 (influenza virus H9N2 …, UniProt P03457 19-560); experiment: Western blot; virus, eggs
[17] = target: hemagglutinin of H13N6 A/Gull/Maryland/704/77 (influenza virus H13N6 …, UniProt P13103 19-566); experiment: Western blot; virus, eggs
[18] = target: hemagglutinin of H12N5 A/Duck/Alberta/60/76 (influenza virus H12N5 …, UniProt P03446 17-564); experiment: Western blot; virus, MDCK cells

Row | Binder | binding result [1] | binding result [2] | signal intensity [3] | signal intensity [4] | signal intensity [5] | signal intensity [6] | signal intensity [7] | signal intensity [8] | signal intensity [9] | signal intensity [10] | signal intensity [11] | signal intensity [12] | signal intensity [13] | binding result [14] | binding result [15] | binding result [16] | binding result [17] | binding result [18]
1 | B1 | no binding (tested: 2µg/ml) | no binding (tested: 2µg/ml) | 280 arbitrary fluorescent units | 20300 arbitrary fluorescent units | 176 arbitrary fluorescent units | 38500 arbitrary fluorescent units | 5120 arbitrary fluorescent units | 464 arbitrary fluorescent units | 6540 arbitrary fluorescent units | 201 arbitrary fluorescent units | 14400 arbitrary fluorescent units | 201 arbitrary fluorescent units | 9930 arbitrary fluorescent units |  |  |  |  | 
2 | B2 |  |  | 362 arbitrary fluorescent units | 21400 arbitrary fluorescent units | 70 arbitrary fluorescent units | 41100 arbitrary fluorescent units | 5780 arbitrary fluorescent units | 651 arbitrary fluorescent units | 7810 arbitrary fluorescent units | 108 arbitrary fluorescent units | 17400 arbitrary fluorescent units | 238 arbitrary fluorescent units | 10500 arbitrary fluorescent units |  |  |  |  | 
3 | B3 | binds | binds | 11500 arbitrary fluorescent units | 2520 arbitrary fluorescent units | 791 arbitrary fluorescent units | 25800 arbitrary fluorescent units | 2780 arbitrary fluorescent units | 5670 arbitrary fluorescent units | 7450 arbitrary fluorescent units | 319 arbitrary fluorescent units | 227 arbitrary fluorescent units | 412 arbitrary fluorescent units | 240 arbitrary fluorescent units | binds | binds | binds | binds | binds
